Consider three molecules from article PMC8222357, “The structure of ORC–Cdc6 on an origin DNA reveals the mechanism of ORC activation by the replication initiator Cdc6” (Nature Communications, 2021).

B3: Orc4, subunit of S. cerevisiae ORC (natural protein)
chain: MTISEARLSPQVNLLPIKRHSNEEVEETAAILKKRTIDNEKCKDSDPGFGSLQRRLLQQLYGTLPTDEKIIFTYLQDCQQEIDRIIKQSIIQKESHSVILVGPRQSYKTYLLDYELSLLQQSYKEQFITIRLNGFIHSEQTAINGIATQLEQQLQKIHGSEEKIDDTSLETISSGSLTEVFEKILLLLDSTTKTRNEDSGEVDRESITKITVVFIFDEIDTFAGPVRQTLLYNLFDMVEHSRVPVCIFGCTTKLNILEYLEKRVKSRFSQRVIYMPQIQNLDDMVDAVRNLLTVRSEISPWVSQWNETLEKELSDPRSNLNRHIRMNFETFRSLPTLKNSIIPLVATSKNFGSLCTAIKSCSFLDIYNKNQLSNNLTGRLQSLSDLELAILISAARVALRAKDGSFNFNLAYAEYEKMIKAINSRIPTVAPTTNVGTGQSTFSIDNTIKLWLKKDVKNVWENLVQLDFFTEKSAVGLRDNATAAFYASNYQFQGTMIPFDLRSYQMQIILQELRRIIPKSNMYYSWTQL
notes: Orc4, S. cerevisiae, as the Orc4 chain of m1; Stood in the assay as a subunit of the whole ORC; written on its own for the contacts seen in the structure; source: purified as part of ORC, as described previously with minor modifications

Common to all, as to experiment: cryo-EM structure; ORC first bound to 85 bp ARS1 origin dsDNA, then Cdc6 added (about 1 μM ORC:1.25 μM DNA:6.4 μM Cdc6), 5 mM ATPγS, 5 mM DTT, on ice; no cross-linking agent; maps at 3.3 and 3.6 Å
Holding throughout (settings): both partners purified

In experiment [1] the target is T1, Orc3, subunit of S. cerevisiae ORC (S. cerevisiae, UniProt P54790 1-616).
T1 construct: Orc3, S. cerevisiae, as the Orc3 chain of m1; Stood in the assay as a subunit of the whole ORC; written on its own for the contacts seen in the structure; source: purified as part of ORC, as described previously with minor modifications
T1 sequence: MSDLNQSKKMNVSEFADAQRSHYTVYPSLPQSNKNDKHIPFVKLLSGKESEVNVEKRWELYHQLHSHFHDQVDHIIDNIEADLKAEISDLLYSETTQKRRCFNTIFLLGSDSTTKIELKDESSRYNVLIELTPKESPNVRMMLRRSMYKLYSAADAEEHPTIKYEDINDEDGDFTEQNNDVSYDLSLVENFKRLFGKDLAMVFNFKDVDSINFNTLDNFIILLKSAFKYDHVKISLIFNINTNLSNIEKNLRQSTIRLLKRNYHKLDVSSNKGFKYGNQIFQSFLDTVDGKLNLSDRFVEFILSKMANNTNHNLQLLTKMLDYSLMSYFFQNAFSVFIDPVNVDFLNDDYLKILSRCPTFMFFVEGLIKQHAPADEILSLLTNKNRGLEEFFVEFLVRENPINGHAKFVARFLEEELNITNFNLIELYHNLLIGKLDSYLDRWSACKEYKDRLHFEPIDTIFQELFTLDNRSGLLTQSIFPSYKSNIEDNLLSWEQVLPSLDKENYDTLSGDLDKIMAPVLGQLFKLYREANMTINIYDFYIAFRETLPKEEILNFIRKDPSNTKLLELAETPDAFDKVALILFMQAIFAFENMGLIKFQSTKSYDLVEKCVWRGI

The target in experiment [2] is B3.
For experiment [3], the target named is T2, Orc1, subunit of S. cerevisiae ORC (S. cerevisiae, UniProt P54784 1-914).
T2 construct: Orc1, S. cerevisiae, as the Orc1 chain of m1; Stood in the assay as a subunit of the whole ORC; written on its own for the contacts seen in the structure; source: purified as part of ORC, as described previously with minor modifications
T2 sequence: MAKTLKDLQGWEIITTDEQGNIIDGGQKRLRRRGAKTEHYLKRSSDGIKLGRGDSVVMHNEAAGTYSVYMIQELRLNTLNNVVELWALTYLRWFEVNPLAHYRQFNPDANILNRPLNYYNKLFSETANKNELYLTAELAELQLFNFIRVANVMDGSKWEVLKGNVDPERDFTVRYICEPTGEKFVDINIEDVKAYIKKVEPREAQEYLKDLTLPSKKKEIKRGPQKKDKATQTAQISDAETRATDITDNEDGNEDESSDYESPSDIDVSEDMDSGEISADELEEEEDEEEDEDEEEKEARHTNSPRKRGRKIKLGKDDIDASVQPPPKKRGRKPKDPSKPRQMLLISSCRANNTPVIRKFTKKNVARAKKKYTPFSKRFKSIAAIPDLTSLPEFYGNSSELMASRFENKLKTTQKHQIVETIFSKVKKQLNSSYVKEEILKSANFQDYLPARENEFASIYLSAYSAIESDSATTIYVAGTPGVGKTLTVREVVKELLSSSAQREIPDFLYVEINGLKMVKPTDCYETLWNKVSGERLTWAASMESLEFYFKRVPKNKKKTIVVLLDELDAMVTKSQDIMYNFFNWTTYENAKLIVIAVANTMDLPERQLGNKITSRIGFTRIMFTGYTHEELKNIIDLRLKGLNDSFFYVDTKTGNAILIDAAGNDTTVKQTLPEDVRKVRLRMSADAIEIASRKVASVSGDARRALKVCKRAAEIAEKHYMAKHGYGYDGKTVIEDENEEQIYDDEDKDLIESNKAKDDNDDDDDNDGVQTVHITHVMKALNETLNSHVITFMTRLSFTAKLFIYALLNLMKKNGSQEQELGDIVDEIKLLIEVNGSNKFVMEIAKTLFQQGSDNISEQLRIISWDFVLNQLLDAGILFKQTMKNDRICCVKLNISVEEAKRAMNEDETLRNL

Experiment [4] has as its target T3, origin recognition complex (ORC; Orc1-6), S. cerevisiae (S. cerevisiae, UniProt P54784 1-914; P32833 1-620; P54790 1-616; P54791 1-529; P50874 1-479; P38826 …).
T3 construct: Orc1, S. cerevisiae, subunit of ORC; BAH domain disordered in the map; Orc2, S. cerevisiae, subunit of ORC; WHD flexible and not visible in the map; Orc3, S. cerevisiae, subunit of ORC; Orc4, S. cerevisiae, subunit of ORC; Orc5, S. cerevisiae, subunit of ORC; Orc6, S. cerevisiae, subunit of ORC; TFIIB-A domain disordered in the map; also called yeast ORC; source: purified as described previously, …

T3 sequence (P32833 whole entry, chain 2 of 2, the tested form may be a part): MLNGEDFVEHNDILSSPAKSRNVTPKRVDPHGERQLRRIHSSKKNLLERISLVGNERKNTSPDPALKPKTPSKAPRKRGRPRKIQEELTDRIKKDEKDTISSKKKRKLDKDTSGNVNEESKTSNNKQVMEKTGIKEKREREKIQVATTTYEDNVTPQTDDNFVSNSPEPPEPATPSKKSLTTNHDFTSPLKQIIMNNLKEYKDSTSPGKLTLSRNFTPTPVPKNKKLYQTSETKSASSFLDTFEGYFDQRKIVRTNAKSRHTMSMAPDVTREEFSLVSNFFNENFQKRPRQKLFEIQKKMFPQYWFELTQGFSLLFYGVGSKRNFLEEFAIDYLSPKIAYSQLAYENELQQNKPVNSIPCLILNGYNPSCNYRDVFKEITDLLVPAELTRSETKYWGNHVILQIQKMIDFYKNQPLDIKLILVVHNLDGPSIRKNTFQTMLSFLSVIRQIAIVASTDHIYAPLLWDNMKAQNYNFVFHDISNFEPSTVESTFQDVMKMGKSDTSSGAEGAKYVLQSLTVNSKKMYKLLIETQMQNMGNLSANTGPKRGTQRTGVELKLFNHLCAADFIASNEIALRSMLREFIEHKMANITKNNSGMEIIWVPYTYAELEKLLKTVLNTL
T3 sequence (P38826 whole entry, chain 6 of 2, the tested form may be a part): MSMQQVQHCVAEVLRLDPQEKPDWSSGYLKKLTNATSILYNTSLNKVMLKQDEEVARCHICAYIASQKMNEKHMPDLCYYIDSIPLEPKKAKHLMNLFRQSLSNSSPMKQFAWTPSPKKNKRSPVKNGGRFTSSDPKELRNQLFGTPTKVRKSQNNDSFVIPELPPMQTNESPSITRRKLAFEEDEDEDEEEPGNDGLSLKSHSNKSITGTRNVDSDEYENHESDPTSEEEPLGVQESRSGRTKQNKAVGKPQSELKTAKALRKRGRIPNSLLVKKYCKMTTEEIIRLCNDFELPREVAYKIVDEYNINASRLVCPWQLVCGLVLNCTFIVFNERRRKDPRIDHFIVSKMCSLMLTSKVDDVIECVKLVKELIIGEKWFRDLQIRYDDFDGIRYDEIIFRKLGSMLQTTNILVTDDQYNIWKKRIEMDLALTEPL

B1: Orc5, subunit of S. cerevisiae ORC (natural protein)
chain: MNVTTPEVAFREYQTNCLASYISADPDITPSNLILQGYSGTGKTYTLKKYFNANPNLHAVWLEPVELVSWKPLLQAIARTVQYKLKTLYPNIPTTDYDPLQVEEPFLLVKTLHNIFVQYESLQEKTCLFLILDGFDSLQDLDAALFNKYIKLNELLPKDSKINIKFIYTMLETSFLQRYSTHCIPTVMFPRYNVDEVSTILVMSRCGELMEDSCLRKRIIEEQITDCTDDQFQNVAANFIHLIVQAFHSYTGNDIFALNDLIDFKWPKYVSRITKENIFEPLALYKSAIKLFLSTDDNLSENGQGESAITTNRDDLENSQTYDLSIISKYLLIASYICSYLEPRYDASIFSRKTRIIQGRAAYGRRKKKEVNPRYLQPSLFAIERLLAIFQAIFPIQGKAESGSLSALREESLMKANIEVFQNLSELHTLKLIATTMNKNIDYLSPKVRWKVNVPWEIIKEISESVHFNISDYFSDIHE
notes: Orc5, S. cerevisiae, as the Orc5 chain of m1; Stood in the assay as a subunit of the whole ORC; written on its own for the contacts seen in the structure; source: purified as part of ORC, as described previously with minor modifications
For the molecule B1, the binding result in experiment [1] and in experiment [2] was “binds” each time.

B2: Cdc6 (replication initiator), S. cerevisiae, wild type (natural protein)
chain: MSAIPITPTKRIRRNLFDDAPATPPRPLKRKKLQFTDVTPESSPEKLQFGSQSIFLRTKALLQKSSELVNLNSSDGALPARTAEYEQVMNFLAKAISEHRSDSLYITGPPGTGKTAQLDMIIRQKFQSLPLSLSTPRSKDVLRHTNPNLQNLSWFELPDGRLESVAVTSINCISLGEPSSIFQKIFDSFQDLNGPTLQIKNMQHLQKFLEPYHKKTTFVVVLDEMDRLLHANTSETQSVRTILELFLLAKLPTVSFVLIGMANSLDMKDRFLSRLNLDRGLLPQTIVFQPYTAEQMYEIVIQKMSSLPTIIFQPMAIKFAAKKCAGNTGDLRKLFDVLRGSIEIYELEKRFLLSPTRGSLNSAQVPLTPTTSPVKKSYPEPQGKIGLNYIAKVFSKFVNNNSTRTRIAKLNIQQKLILCTIIQSLKLNSDATIDESFDHYIKAITKTDTLAPLQRNEFLEICTILETCGLVSIKKTKCKGKTKRFVDKIDVDLDMREFYDEMTKISILKPFLH
notes: Cdc6, S. cerevisiae; also called yeast Cdc6; source: purified as described previously, with minor modifications (lysis buffer with 500 mM potassium phosphate)
On to B2, for which the binding result in experiment [3] and in experiment [4] was “binds” each time.

For the molecule B3, the binding result in experiment [3] is “binds”.
